Experimental findings from publication PMC5762521 are described below.

This assay concerns the target T1, Heat shock transcription factor-1 (HSF-1) (human (endogenous in HCT-116)), Q00613.
T1 chain: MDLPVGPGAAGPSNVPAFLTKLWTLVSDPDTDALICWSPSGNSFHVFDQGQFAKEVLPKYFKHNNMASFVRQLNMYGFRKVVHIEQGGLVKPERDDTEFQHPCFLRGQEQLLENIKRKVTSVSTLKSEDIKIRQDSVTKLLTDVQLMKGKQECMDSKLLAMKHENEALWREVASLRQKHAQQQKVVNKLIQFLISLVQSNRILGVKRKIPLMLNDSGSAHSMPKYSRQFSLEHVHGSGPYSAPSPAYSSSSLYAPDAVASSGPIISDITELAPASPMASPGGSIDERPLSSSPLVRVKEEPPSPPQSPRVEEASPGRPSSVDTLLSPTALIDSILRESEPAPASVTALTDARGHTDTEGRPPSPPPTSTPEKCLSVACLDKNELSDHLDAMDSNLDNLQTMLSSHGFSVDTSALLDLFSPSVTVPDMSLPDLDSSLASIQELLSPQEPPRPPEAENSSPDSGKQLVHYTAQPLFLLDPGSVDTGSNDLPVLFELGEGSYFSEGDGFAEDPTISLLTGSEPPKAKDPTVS
Kind of assay: cross-linking; HCT-116 cell lysates (control, heat shock, vitexin-treated); 10 ug protein with 2 mM glutaraldehyde, room temperature, 30 min, stopped with lysine; SDS-PAGE and anti-HSF-1 blot; vitexin treatment said to inhibit oligomerization. The following applies: remark: other sources report otherwise.

B1: Heat shock transcription factor-1 (HSF-1), Q00613 1-529 (natural protein)
chain: T1 chain
For the molecule B1, the stoichiometry N was 3.
